# Test results published in patent US20110086770A1 (ANAPHORE, published 2011).
# Positions count from the first letter of the chain named. Names may count otherwise.
# T1: recombinant human IL-12Rβ2/Fc fusion protein (R&D Systems) (human, UniProt Q99665 24-622, limits assumed)
# T1 construct: bought; also called Il12Rb2
# T1 sequence (looked up): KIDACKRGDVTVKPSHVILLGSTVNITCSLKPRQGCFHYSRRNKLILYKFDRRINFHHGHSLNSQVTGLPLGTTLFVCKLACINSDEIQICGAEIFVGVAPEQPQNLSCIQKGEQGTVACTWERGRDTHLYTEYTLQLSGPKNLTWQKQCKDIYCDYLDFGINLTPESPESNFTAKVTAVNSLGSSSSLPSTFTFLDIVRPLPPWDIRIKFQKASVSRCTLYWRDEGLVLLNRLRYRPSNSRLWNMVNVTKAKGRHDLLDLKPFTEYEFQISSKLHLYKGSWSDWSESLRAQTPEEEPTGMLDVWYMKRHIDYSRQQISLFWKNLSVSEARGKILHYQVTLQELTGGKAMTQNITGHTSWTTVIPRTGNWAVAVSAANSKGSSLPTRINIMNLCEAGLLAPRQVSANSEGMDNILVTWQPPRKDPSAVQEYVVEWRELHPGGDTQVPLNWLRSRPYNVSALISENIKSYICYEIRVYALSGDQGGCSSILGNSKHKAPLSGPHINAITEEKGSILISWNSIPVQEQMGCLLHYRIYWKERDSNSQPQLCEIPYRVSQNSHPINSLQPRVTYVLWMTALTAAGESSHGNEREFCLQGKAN
# T2: recombinant human IL-23R/Fc chimera (R&D Systems) (human, UniProt Q5VWK5 24-353)
# T2 construct: bought; also called human IL-23R/Fc fusion protein; rhIL23RFc
# T2 sequence (looked up): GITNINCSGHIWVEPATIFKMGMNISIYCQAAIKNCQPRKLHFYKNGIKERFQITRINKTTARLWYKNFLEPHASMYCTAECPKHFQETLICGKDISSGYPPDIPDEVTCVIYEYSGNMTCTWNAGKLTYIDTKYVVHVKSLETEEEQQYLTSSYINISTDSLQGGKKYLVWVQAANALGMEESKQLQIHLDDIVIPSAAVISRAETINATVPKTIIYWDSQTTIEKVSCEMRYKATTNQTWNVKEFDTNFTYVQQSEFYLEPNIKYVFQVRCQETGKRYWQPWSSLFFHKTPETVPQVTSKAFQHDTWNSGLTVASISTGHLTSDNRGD
# B1: 101-51-1A4 ATRIMER (designed binder)
# chain: EPPTQKPKKIVNAKKDVVNTKMFEELKSRLDTLAQEVALLKEQQALQTVCLKGTKVHMKCFLAFTQTKTFHEASEDCISRGGTLSTPQTGSENDALYEYLRQSVGNEAEIWLGLNGSALTNTWVDMTGARIAYKNWERPALVQPRGGFGVFGENCAVLSGAANGKWFDKRCRDQLPYICQFGIV
# notes: also called ATRIMER complex 1A4
# B2: 014-42.3D11 ATRIMER (designed binder)
# chain: EPPTQKPKKIVNAKKDVVNTKMFEELKSRLDTLAQEVALLKEQQALQTVCLKGTKVHMKCFLAFTQTKTFHEASEDCISRGGTLSTPQTGSENDALYEYLRQSVGNEAEIWLGLNGWLEGAGWVDMTGARIAYKNWETEITAQPDGGWHWRWENCAVLSGAANGKWFDKRCRDQLPYICQFGIV
# modifications: Homotrimer (ATRIMER) of this chain; one protomer is given.
# notes: not shown: C-terminal tag (His/Myc of pANA4, HA-StrepII of pANA10, or that of pANA19)
# B3: 1a7b (=A8G) DR 5 ATRIMER (designed binder)
# chain: EPPTQKPKKIVNAKKDVVNTKMFEELKSRLDTLAQEVALLKEQQALQTVCLKGTKVHMKCFLAFTQTKTFHEASEDCISRGGTLSTPQTGSENDALYEYLRQSVGNEAEIWLGLNRAWLRPRWVDMTGARIAYKNWETEITAQPDGGTLVSGENCAVLSGAANGKWFDKRCRDQLPYICQFGIV
# modifications: Homotrimer (ATRIMER) of this chain; one protomer is given.
# notes: also called 029-15.A8G; not shown: C-terminal tag (His/Myc of pANA4, HA-StrepII of pANA10, or that of pANA19)
# B4: 8b6b (=A1H) DR 5 ATRIMER (designed binder)
# chain: B3 chain with W118V, T148W, L149V, V150L, S151G, E153K
# modifications: Homotrimer (ATRIMER) of this chain; one protomer is given.
# notes: also called 029-15.A1H; not shown: C-terminal tag (His/Myc of pANA4, HA-StrepII of pANA10, or that of pANA19)
# B5: 9b3d (=B3D) DR 5 ATRIMER (designed binder)
# chain: EPPTQKPKKIVNAKKDVVNTKMFEELKSRLDTLAQEVALLKEQQALQTVCLKGTKVHMKCFLAFTQTKTFHEASEDCISRGGTLSTPQTGSENDALYEYLRQSVGNEAEIWLGLNELRTDGLWVDMTGARIAYKNWETEITAQPDGGVMRRSENCAVLSGAANGKWFDKRCRDQLPYICQFGIV
# modifications: Homotrimer (ATRIMER) of this chain; one protomer is given.
# notes: also called 029-15.B3D; not shown: C-terminal tag (His/Myc of pANA4, HA-StrepII of pANA10, or that of pANA19)
# B6: 2a1a (=B9F) DR 5 ATRIMER (designed binder)
# chain: B5 chain with E116K, L117R, R118V, T119W, D120Y, G121R, L122G, V148M, M149R, S152R
# modifications: Homotrimer (ATRIMER) of this chain; one protomer is given.
# notes: also called 029-15.B9F; not shown: C-terminal tag (His/Myc of pANA4, HA-StrepII of pANA10, or that of pANA19)
# B7: 105-20-1B3 ATRIMER (designed binder)
# chain: B1 chain with R138T, P139E, A140I, L141T, V142A, R145D, V150Y
# notes: not shown: C-terminal tag: Myc/His6 (pANA4) or HA-StrepII (pANA10); A Ser left at the ompA junction may also sit at the N-terminus
# B8: 101-51-1A5 ATRIMER (designed binder)
# chain: B1 chain with R138N, P139G, A140H, L141E, V142P, V150Y
# B9: 105-78-2E6 ATRIMER (designed binder)
# chain: B1 chain with A118L, L119R, R138T, P139E, A140I, L141T, V142A, R145D
# notes: not shown: C-terminal purification tag: Myc/His6 (pANA4) or HA-StrepII (pANA10)
# Target: T3, recombinant human IL-12Rβ1/Fc fusion protein (R&D Systems) (human, UniProt P42701 24-540, limits assumed)
# T3 construct: bought; also called Il12Rb1
# Assay: Biacore, IL-12Rβ1/Fc captured
# Method: (§1) A Biacore 3000 biosensor (GE Healthcare) was used to evaluate the interaction of human IL-12Rβ1/Fc or IL-12Rβ2/Fc with IL-23R binding ATRIMER™ complexes. Immobilization of an anti-human IgG Fc antibody (GE Healthcare) to the CM5 chip (GE Healthcare) was performed using standard amine coupling chemistry, and this modified surface was used to capture recombinant human IL-12Rβ1/Fc or IL-12Rβ2/Fc fusion protein (R&D Systems). A low-density receptor surface, less than 200 RU, was used for all of the analyses. ATRIMER™ complex dilutions (100 nM) were injected over the IL-12R surface at 30 μl/min. Data collection was 3 minutes for the association and 5 minutes for dissociation. The anti-human IgG surface was regenerated with a 30 s pulse of 3M magnesium chloride. All sensorgrams were double-referenced against an anti-human IgG Fc antibody surface as well as buffer injections.
row,binding result,Binder
1,no binding (tested: 100 nM),B1

# Target: T1, recombinant human IL-12Rβ2/Fc fusion …
# Assay: Biacore, IL-12Rβ2/Fc captured
# Method: as §1
row,binding result,Binder
1,no binding (tested: 100 nM),B1

# Target: recombinant human DR 4 receptor Fc fusion protein (R&D Systems) (human)
# Sequence (chain, as listed by the source): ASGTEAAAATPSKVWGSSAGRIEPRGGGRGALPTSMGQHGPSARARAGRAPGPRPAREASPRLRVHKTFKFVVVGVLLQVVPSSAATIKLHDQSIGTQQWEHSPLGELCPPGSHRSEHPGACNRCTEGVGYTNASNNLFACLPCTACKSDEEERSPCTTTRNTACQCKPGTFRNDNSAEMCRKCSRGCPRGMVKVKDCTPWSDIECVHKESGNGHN
# Assay: SPR (Biacore), captured DR4/Fc
Ka [M⁻¹],Kd [µM],koff [s⁻¹],kon [M⁻¹ s⁻¹],Binder
2.53e+07,0.0395,0.000526,13300,B2

# Target: recombinant human DR 5 receptor Fc fusion protein (R&D Systems) (human)
# Sequence (chain, as listed by the source): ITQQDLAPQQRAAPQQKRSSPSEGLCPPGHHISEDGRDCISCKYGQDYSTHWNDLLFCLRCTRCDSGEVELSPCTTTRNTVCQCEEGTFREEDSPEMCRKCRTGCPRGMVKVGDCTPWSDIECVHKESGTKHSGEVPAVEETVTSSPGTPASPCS
# Assay: SPR (Biacore), captured DR5/Fc
Ka [M⁻¹],Kd [µM],koff [s⁻¹],kon [M⁻¹ s⁻¹],Binder
6.43e+07,0.0156,0.000629,40500,B3
2.56e+07,0.0391,0.000506,12900,B4
1.11e+06,0.899,0.000104,116,B5
2.38e+07,0.0428,0.00184,43800,B6

# Target: T2, recombinant human IL-23R/Fc chimera …
# Assay: competition ELISA against IL-23
# Method: Assays were performed generally as follows. Individual wells in Immulon HB2 plates were incubated overnight at 4° C. with 100 μL PBS containing 100 ng of an anti-human IgG Fc (R&D MAB 110 clone 97924). Plates were washed five times with PBS/0.05% Tween 20, and wells were incubated for 1.5 h at RT with 100 μL each of PBS containing 50 ng of recombinant human IL-23R/Fc. […] Competitor was included at a final concentration of 1 μg/mL. After incubation, plates were washed as described and wells were incubated for 40 min at RT with 100 μL each of PBS containing a 1:5000 dilution of streptavidin-HRP conjugate (Pierce catalog no. 21130). After washing, wells were incubated with 100 μL each of TMB (BioFX Lab catalog no. TMBH-1000-0) for up to 30 min at RT. Reactions were stopped with an equal volume of 0.2 M sulfuric acid.
row,Ratio IC50 to 056-53.H4E IC50 [ratio],Binder
1,1,B1
2,1.2,B7
3,1,B8
4,1,B9

# Target: T2, recombinant human IL-23R/Fc chimera …
# Assay: SPR (Biacore), captured IL-23R/Fc, ATRIMER
# Method: A Biacore 3000 biosensor (GE Healthcare) was used to evaluate the interaction of human IL-23R and receptor binders. Immobilization of an anti-human IgG Fc antibody (GE Heathcare) to the CM5 chip (Biacore) was performed using standard amine coupling chemistry, and this modified surface was used to capture a recombinant human IL-23R/Fc fusion protein (R&D Systems). A low-density receptor surface, less than 200 RU, was used for all of the analyses. ATRIMER™ polypeptide complex dilutions (1-500 nM) were injected over the IL-23R surface at 30 μl/min and kinetic constants were derived from the sensorgram data using the Biaevaluation software (version 3.1, GE Healthcare). Data collection was 3 minutes for the association and 5 minutes for dissociation. The anti-human IgG surface was regenerated with a 30 s pulse of 3M magnesium chloride. All sensorgrams were double-referenced against an activated and blocked flow-cell as well as buffer injections.
Ka [M⁻¹],Kd [µM],koff [s⁻¹],kon [M⁻¹ s⁻¹],Binder
2.58e+09,0.000388,0.000395,1.02e+06,B1
1.71e+09,0.000584,0.000289,495000,B8
